For experiment [1], the target named is biotinylated canine FcRn (canine, UniProt A0A8I3PFR8 25-347, biotinylated (site not stated)). Description: ELISA pH 5.5, fusion protein coated, biotinylated canine FcRn titrated. As for the experimental part:
Insulin-Fc fusion proteins comprising Fc fragments of canine or feline origin were diluted to 10 μg/ml in sodium bicarbonate pH 9.6 buffer and coated in duplicate on Maxisorb ELISA plate strips for 1-2 hours at RT. The strips were then washed 4 times with PBST (PBS/0.1% Tween-20) buffer and blocked with Superblock blocking reagent (ThermoFisher). Strips for FcRn binding were then washed again twice with pH 5.5 MES/NaCl/Tween (50 mM MES/l50 mM NaCl/0.1% Tween-20) buffer before addition of the FcRn reagent (biotinylated canine FcRn; Immunitrack). […] Serial dilutions (1:3× dilutions) of biotinylated FcRn reagent were prepared in pH 5.5 MES/NaCl/Tween/10% Superblock buffer at concentrations from 1000 ng/ml to 0.45 ng/ml and loaded at 100 μL/well using a multichannel pipettor onto the strips coated with the insulin-Fc fusion protein compounds. The assay plate was then incubated for 1 hour at room temperature. FcRn binding strips were washed 4 times with pH 5.5 MES/NaCl/Tween buffer and then loaded with 100 μl/well […] diluted 1:10000 in pH 5.5 MES/NaCl/10% Superblock buffer. After incubating for 45 minutes, strips were washed again 4 times with pH 5.5 MES/NaCl/Tween buffer. TMB was finally added to reveal the bound biotinylated-canine FcRn reagent, and the color development was stopped with the ELISA stop reagent. The plate was read in an ELISA plate reader at a wavelength of 450 nm. The OD values (proportional to the binding of canine-FcRn to the insulin-Fc fusion protein test compounds) were plotted against log concentrations of FcRn added to each well to generate binding curves using GraphPad Prism software. EC50 values for each binding curve were calculated to compare between different compounds.

In experiment [2] the target is T1, biotinylated recombinant human Fc(gamma) receptor I (human, UniProt P12314 16-288, biotinylated (site not stated)).
T1 construct: Bought reagent, used as surrogate for canine/feline Fc(gamma)RI; also called rhFc(gamma) receptor I; Fc(gamma)RI
T1 sequence (P12314 16-288 limits assumed): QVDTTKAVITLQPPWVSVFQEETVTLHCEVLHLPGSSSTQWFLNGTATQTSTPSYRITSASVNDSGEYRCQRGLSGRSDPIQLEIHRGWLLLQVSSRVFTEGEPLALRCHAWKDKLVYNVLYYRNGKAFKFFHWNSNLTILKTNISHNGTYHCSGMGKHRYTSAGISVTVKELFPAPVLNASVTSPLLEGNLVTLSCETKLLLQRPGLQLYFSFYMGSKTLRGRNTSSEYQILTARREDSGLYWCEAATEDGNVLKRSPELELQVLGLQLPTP
Description: ELISA, fusion protein coated, biotinylated rhFc(gamma)RI at 3000 ng/mL, pH 7.4. As to the method: (§1) The binding of insulin-Fc fusion proteins to the Fc(gamma) receptor I at pH 7.4 was conducted using an ELISA assay as follows. Since neither canine nor feline Fc(gamma) receptor I was not commercially available, human Fc(gamma) receptor I (i.e., rhFc(gamma) receptor I) was used as a surrogate mammalian receptor. Insulin-Fc compounds were diluted to 10 μg/mL in sodium bicarbonate buffer at pH 9.6 and coated on Maxisorp (Nunc) microtiter plates overnight at 4° C., after which the microplate strips were washed 5 times with PBST (PBS/0.05% Tween-20) buffer and blocked with Superblock blocking reagent (ThermoFisher). Serial dilutions of biotinylated rhFc(gamma) receptor I (recombinant human Fc(gamma)R-I; R&D Systems) were prepared in PBST/10% Superblock buffer from 6000 ng/mL to 8.2 ng/mL and loaded at 100 μL/well onto the microplate strips coated with insulin-Fc fusion protein. The microtiter plate was incubated for 1 hour at room temperature after which the microplate strips were washed 5 times with PBST and then loaded with 100 μL/well of streptavidin-HRP diluted 1:10000 in PBST/10% Superblock buffer. After incubating for 45 min, the microplate strips were washed again 5 times with PBST. TMB was added to reveal the bound Fc(gamma) receptor I proteins and stopped with ELISA stop reagent (Boston Bioproducts). The plate was read in an ELISA plate reader at 450 nm, and the OD values (proportional to the binding of rhFc(gamma) receptor I to insulin-Fc protein) were plotted against log concentrations of rhFc(gamma) receptor I added to each well to generate binding curves using GraphPad Prism software.
Finally, select compounds were tested for their likelihood to interact with the immune system by measuring their Fc(gamma) receptor binding activity according to the procedure of Example 8. Table 19 compares the Fc(gamma) receptor I binding of these insulin-Fc fusion proteins with the Fc(gamma) receptor binding of the insulin-Fc fusion protein of SEQ ID NO: 52.
In general terms: ELISA stands for enzyme-linked immunosorbent assay.

Experiment [3] addresses T2, human insulin receptor (human, UniProt P06213 28-1382).
T2 construct: whole, on cells; Endogenous receptor on IM-9 cells; also called IR
Description: competition with biotinylated RHI on IM-9 cells, flow cytometry, 4 C. As for the experimental part:
Cultures of IM-9 cells were centrifuged at 250×g (˜1000 rpm) for 10 min to pellet the cells. Cells were washed once with HBSS or PBS buffer, resuspended in cold FACS staining medium (HBSS/2 mM EDTA/0.1% Na-azide+4% horse serum) to a concentration of 8×10⁶ cells/mL and kept on ice or 4° C. until test solutions were made. The insulin-Fc protein was diluted in FACS buffer in 1:3 serial dilutions as 2× concentrations in 1.2 mL tubes (approx. 60 μL volume of each dilution), and the solutions were kept cold on ice until ready for pipetting.
40 μL of an IM-9 cell suspension (8×10⁶ cells/mL) was then added to each well by multichannel pipette, mixed again gently and incubated on ice for 30 min to allow competitive binding on the insulin receptor on IM-9 cells. […]
The V-bottom plates containing cells were then analyzed on a Guava 8-HT flow cytometer (Millipore). Biotinylated-RHI binding to insulin receptor was quantitated by the median fluorescence intensity (MFI) of the cells on the FACS FL-2 channel for each concentration of the test compound. […] The % inhibition by test compounds of biotinylated-RHI binding on IM-9 cells was plotted against log concentrations of the test compound, and the resulting IC50 values were calculated using GraphPad Prism (GraphPad Software, La Jolla, CA) for the test compounds.
For orientation: Flow cytometry measures light scatter and fluorescence of single cells or particles in a stream.

Experiment [4] concerns the target T2, human insulin receptor. The description is as above. As for the experimental part:
(§2) 40 μL of an IM-9 cell suspension (8×10⁶ cells/mL) was then added to each well by multichannel pipette, mixed again gently and incubated on ice for 30 min to allow competitive binding on the insulin receptor on IM-9 cells. Cells were then washed twice with 275 μL of ice-cold FACS wash buffer (HBSS/2 mM EDTA/0.1% Na-azide+0.5% horse serum) by centrifuging the V-bottom plate at 3000 rpm for 3 min and aspirating the supernatant. Cells were then resuspended in 40 μL of FACS staining medium containing 1:100 diluted Streptavidin-PE (Life Technologies) for 20 min on ice. Cells were then washed once with 275 μL of ice-cold FACS buffer and finally fixed with 3% paraformaldehyde for 10 min at room temp. Cells were then washed once with 275 μL of ice-cold FACS buffer and resuspended in 250 μl of FACS buffer for analysis.
The V-bottom plates containing cells were then analyzed on a Guava 8-HT flow cytometer (Millipore). Biotinylated-RHI binding to insulin receptor was quantitated by the median fluorescence intensity (MFI) of the cells on the FACS FL-2 channel for each concentration of the test compound. Control wells were labeled only with biotinylated-RHI and were used to calculate the percent (%) inhibition resulting from each test compound concentration. The % inhibition by test compounds of biotinylated-RHI binding on IM-9 cells was plotted against log concentrations of the test compound, and the resulting IC50 values were calculated using GraphPad Prism (GraphPad Software, La Jolla, CA) for the test compounds. Lower IC50 values of the test compound therefore indicate greater levels of biotinylated-RHI inhibition at lower concentrations indicating stronger binding of the insulin-Fc fusion protein to the insulin receptor. A control compound, such as unlabeled recombinant human insulin (RHI) was also used as an internal standard to generate an RHI IC50 against which a given compound IC50 could be ratioed (IC50(compound)/IC50(RHI)). Lower IC50 ratios have more similar binding to RHI (stronger binding to insulin receptor), while higher IC50 ratios have weaker binding to the insulin receptor relative to RHI.
This is another data set of the same source.

Experiment [5] deals with T2, human insulin receptor. The description is as above. As for the experimental part:
as §2
The V-bottom plates containing cells were then analyzed on a Guava 8-HT flow cytometer (Millipore). Biotinylated-RHI binding to insulin receptor was quantitated by the median fluorescence intensity (MFI) of the cells on the FACS FL-2 channel for each concentration of the test compound. […] The % inhibition by test compounds of biotinylated-RHI binding on IM-9 cells was plotted against log concentrations of the test compound, and the resulting IC50 values were calculated using GraphPad Prism (GraphPad Software, La Jolla, CA) for the test compounds. […]
This is another data set of the same source.

In experiment [6] the target is T2, human insulin receptor. Described as above. The source holds these as a separate data set.
The target of experiment [7] is T1, biotinylated recombinant human …. Description: ELISA, fusion protein coated, biotinylated rhFc(gamma)RI in solution, pH 7.4. As to the method:
as §1
The insulin-Fc fusion protein of SEQ ID NO: 40 was synthesized in HEK293 cells according to the procedure of Example 1 and purified using a Protein A column according to Example 3. The structure of the insulin-Fc fusion protein was confirmed according to Example 4 by non-reducing and reducing CE-SDS, and the sequence was further identified by LC-MS with glycan removal according to Example 5. The protein yield was 174 mg/L at this stage. The % homodimer for the sequence was measured by size-exclusion chromatography according to Example 6 and was determined to be 98.9% resulting in a homodimer titer of 172 mg/L which meets the manufacturing design criteria.

From US20240101635A1 (AKSTON BIOSCIENCES, published 2024) come the findings set out here.

Like-named read-outs stand apart in the source and are kept apart here.

Chain of biotinylated canine FcRn (A0A8I3PFR8 entry or part of it): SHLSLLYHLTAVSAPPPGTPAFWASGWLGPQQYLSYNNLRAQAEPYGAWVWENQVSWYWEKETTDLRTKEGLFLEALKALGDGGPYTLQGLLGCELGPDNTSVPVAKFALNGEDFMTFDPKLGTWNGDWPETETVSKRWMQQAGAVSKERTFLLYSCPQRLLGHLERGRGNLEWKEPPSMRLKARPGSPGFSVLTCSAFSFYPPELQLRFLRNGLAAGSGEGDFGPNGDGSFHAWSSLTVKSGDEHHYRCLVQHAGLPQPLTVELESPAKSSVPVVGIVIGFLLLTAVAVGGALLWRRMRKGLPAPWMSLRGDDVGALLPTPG
T2 sequence (P06213 28-1382): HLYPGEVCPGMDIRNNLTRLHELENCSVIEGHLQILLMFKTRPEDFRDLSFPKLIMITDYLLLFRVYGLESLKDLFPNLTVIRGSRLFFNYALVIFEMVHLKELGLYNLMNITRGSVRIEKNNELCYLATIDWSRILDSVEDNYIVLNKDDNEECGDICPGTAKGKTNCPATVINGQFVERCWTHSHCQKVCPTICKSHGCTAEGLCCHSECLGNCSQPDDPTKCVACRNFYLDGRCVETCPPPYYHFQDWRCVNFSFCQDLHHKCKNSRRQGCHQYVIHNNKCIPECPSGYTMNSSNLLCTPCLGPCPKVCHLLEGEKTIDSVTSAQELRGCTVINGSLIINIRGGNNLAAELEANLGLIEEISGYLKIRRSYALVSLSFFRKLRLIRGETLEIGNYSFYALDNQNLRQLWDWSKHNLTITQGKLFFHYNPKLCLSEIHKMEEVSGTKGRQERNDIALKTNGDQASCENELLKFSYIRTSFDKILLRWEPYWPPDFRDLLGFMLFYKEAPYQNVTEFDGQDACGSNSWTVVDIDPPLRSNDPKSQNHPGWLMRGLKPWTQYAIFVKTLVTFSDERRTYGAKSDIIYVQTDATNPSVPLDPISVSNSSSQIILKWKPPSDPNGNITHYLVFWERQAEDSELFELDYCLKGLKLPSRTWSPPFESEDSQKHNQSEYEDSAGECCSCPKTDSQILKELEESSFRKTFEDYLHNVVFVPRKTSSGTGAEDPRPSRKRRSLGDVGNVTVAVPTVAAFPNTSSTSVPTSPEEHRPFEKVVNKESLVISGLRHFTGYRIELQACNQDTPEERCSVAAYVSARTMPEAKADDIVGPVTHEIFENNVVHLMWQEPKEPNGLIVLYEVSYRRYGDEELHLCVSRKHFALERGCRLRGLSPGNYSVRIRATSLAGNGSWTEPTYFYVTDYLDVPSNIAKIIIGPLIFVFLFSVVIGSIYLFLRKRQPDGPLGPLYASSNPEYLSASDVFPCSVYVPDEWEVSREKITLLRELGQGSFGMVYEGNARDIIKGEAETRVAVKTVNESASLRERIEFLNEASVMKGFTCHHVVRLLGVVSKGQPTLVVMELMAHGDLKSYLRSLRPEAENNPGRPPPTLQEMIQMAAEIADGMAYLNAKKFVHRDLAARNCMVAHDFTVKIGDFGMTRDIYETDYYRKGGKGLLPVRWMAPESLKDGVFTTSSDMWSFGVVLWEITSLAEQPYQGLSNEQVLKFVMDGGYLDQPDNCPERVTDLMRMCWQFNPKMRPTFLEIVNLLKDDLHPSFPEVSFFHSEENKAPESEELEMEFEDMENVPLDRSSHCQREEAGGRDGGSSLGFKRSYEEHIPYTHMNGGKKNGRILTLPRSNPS

B1: insulin-Fc fusion protein of SEQ ID NO: 32 (Fc fusion)
chain: FVNQHLCGSHLVEALELVCGERGFHYGGGGGGSGGGGGIVEQCCTSTCSLDQLENYCGGGGGQGGGGQGGGGQGGGGGDCPKCPAPEMLGGPSVFIFPPKPKDTLLIARTPEVTCVVVDLDPEDPEVQISWFVDGKQMQTAKTQPREEQFNGTYRVVSVLPIGHQDWLKGKQFTCKVNNKALPSPIERTISKARGQAHQPSVYVLPPSREELSKNTVSLTCLIKDFFPPDIDVEWQSNGQQEPESKYRTTPPQLDEDGSYFLYSKLSVDKSRWQRGDTFICAVMHEALHNHYTQESLSHSPG
notes: homodimer; also called 218d
Consider B1, for which, in experiment [1], the midpoint of the response, the EC50, lay at 0.599 µg/mL. The “OD450 nm Minus Assay Background” value in experiment [2] is 0.311 OD450. Moreover, the “OD450 nm at a Fc(gamma)RI concentration of 3000 (ng/mL)” value in experiment [2] worked out at 0.368 OD450. In experiment [2], the “Ratio to SEQ ID NO: 52” value worked out at 0.84 ratio. Moreover, the IC50 in experiment [3], in experiment [4] and in experiment [5] was 2340 nM throughout.

B2: insulin-Fc fusion protein of SEQ ID NO: 38 (Fc fusion)
chain: FVNQHLCGSHLVEALELVCGERGFHYGGGGGGSGGGGGIVEQCCTSTCSLDQLENYCGGGGGQGGGGQGGGGQGGGGGDCPKCPPPEMLGGPSIFIFPPKPKDTLSISRTPEVTCLVVDLGPDDSDVQITWFVDNTQVYTAKTSPREEQFNSTYRVVSVLPILHQDWLKGKEFKCKVNSKSLPSPIERTISKDKGQPHEPQVYVLPPAQEELSRNKVSVTCLIEGFYPSDIAVEWEITGQPEPENNYRTTPPQLDSDGTYFLYSRLSVDRSRWQRGNTYTCSVSHEALHSHHTQKSLTQSPG
notes: homodimer
For the molecule B2, the EC50 (as a rule, the concentration at which the effect is half-maximal) in experiment [1] worked out at 1.55 µg/mL. In addition, the IC50 (as a rule, the concentration that inhibits the measured activity by half) in experiment [6] was found to be 2400 nM. The binding result in experiment [7] is “binds”.

B3: insulin-Fc fusion protein of SEQ ID NO: 40 (Fc fusion)
chain: FVNQHLCGSHLVEALALVCGERGFHYGGGGGGSGGGGGIVEQCCTSTCSLDQLENYCGGGGGQGGGGQGGGGQGGGGGDCPKCPPPEMLGGPSIFIFPPKPKDTLSISRTPEVTCLVVDLGPDDSDVQITWFVDNTQVYTAKTSPREEQFSSTYRVVSVLPILHQDWLKGKEFKCKVNSKSLPSPIERTISKDKGQPHEPQVYVLPPAQEELSRNKVSVTCLIEGFYPSDIAVEWEITGQPEPENNYRTTPPQLDSDGTYFLYSRLSVDRSRWQRGNTYTCSVSHEALHSHHTQKSLTQSPG
notes: homodimer
In experiment [1], B3 yielded an EC50 of 8.16 µg/mL. The same molecule showed an IC50 in experiment [6] of 4640 nM. In experiment [7], the “fold less Fc(gamma) receptor activity than SEQ ID NO: 38” value is ~4 fold less.
